Reference: patent publication US20150344570A1 (published 2015)

Columns and labels:
[1] = biological target: T1, FcγRIIa H extracellular domain with C-terminal His tag (human, UniProt P12318 34-217); assay: SPR (Biacore); ratio KD for FcγRIIb / KD for FcγRIIa H
T1 construct: extracellular domain; Soluble receptor, H131 allotype; also called FcgRIIa H; FcgRIIaH; not shown: His tag at the C terminus
T1 sequence (looked up): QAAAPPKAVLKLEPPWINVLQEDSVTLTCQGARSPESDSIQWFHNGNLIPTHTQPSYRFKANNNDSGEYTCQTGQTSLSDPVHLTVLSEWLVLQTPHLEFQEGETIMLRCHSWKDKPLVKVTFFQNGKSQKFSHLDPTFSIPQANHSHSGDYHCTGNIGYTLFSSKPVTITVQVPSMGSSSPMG
Procedure: (§1) These antibodies were assessed for the binding activity to each FcγR according to the method described in Reference Example 2.
(§2) Analysis of interaction between objective antibody and the FcγR was carried out using Biacore T100 (GE Healthcare). HBS-EP+ (GE Healthcare) was used as the running buffer, and the measurement temperature was set to 25° C. Chips produced by immobilizing the antigen peptide by the amine coupling method to a Series S Sencor Chip CM5 (GE Healthcare), or alternatively, chips produced by allowing preliminarily biotinylated antigen peptides to interact with and immobilize onto a Series S Sensor Chip SA (certified) (GE Healthcare) were used. Antibodies of interest were captured onto an antigen peptide-immobilized chip, and allowed to interact to each FcγR diluted with running buffer. To regenerate and repeatedly use the chip, the antibodies captured on the chip were washed off by reacting 10 mM glycine-HCl, pH 1.5.

[2] = biological target: T2, FcγRIIa R extracellular domain with C-terminal His tag (human, UniProt P12318 34-217); assay: SPR (Biacore); ratio KD for FcγRIIb / KD for FcγRIIa R
T2 construct: extracellular domain; Soluble receptor, R131 allotype; also called FcgRIIa R; FcgRIIaR; not shown: His tag at the C terminus
T2 sequence (looked up): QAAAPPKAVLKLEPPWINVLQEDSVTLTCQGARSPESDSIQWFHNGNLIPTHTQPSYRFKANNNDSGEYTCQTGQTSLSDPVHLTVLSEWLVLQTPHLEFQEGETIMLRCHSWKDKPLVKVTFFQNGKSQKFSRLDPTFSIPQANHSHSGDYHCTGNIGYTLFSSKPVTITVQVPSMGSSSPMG
Procedure: as §1, §2

Binder | A/I ratio [1] | A/I ratio [2]
GpH7-Kn037/GpH7-Hl036/GpL16-k0 (antibody, human IgG1, kappa, Anti-glypican-3 IgG1, knobs-into-holes; also called Kn037/Hl036) heavy 1: QVQLVQSGAEVKKPGASVTVSCKASGYTFTDYEMHWIRQPPGEGLEWIGAIDPKTGDTAYSESFQDRVTLTADKSTSTAYMELSSLTSEDTAVYYCTRFYSYTYWGQGTLVTVSSASTKGPSVFPLAPSSKSTSGGTAALGCLVKDYFPEPVTVSWNSGALTSGVHTFPAVLQSSGLYSLSSVVTVPSSSLGTQTYICNVNHKPSNTKVDKKVEPKSCDKTHTCPPCPAPELLAGPDVFLFPPKPKDTLMISRTPEVTCVVVDVSHEDPEVKFNWYVDGVEVHNAKTKPREEQYNSTYRVVSVLTVLHQDWLNGKEYKCKVSNKALPAPEEKTISKAKGQPREPQVCTLPPSRDELTKNQVSLWCLVKGFYPSDIAVEWESNGQPENNYKTTPPVLDSDGSFFLYSKLTVDKSRWQQGNVFSCSVMHEALHNHYTQKSLSLSP heavy 2: QVQLVQSGAEVKKPGASVTVSCKASGYTFTDYEMHWIRQPPGEGLEWIGAIDPKTGDTAYSESFQDRVTLTADKSTSTAYMELSSLTSEDTAVYYCTRFYSYTYWGQGTLVTVSSASTKGPSVFPLAPSSKSTSGGTAALGCLVKDYFPEPVTVSWNSGALTSGVHTFPAVLQSSGLYSLSSVVTVPSSSLGTQTYICNVNHKPSNTKVDKKVEPKSCDKTHTCPPCPAPELLAGPDVFLFPPKPKDTLMISRTPEVTCVVVDVSHEDPEVKFNWYVDGVEVHNAKTKPREEQYNSTYRVVSVLTVLHQDWLNGKEYKCKVSNKALPAPEEKTISKAKGQPREPQVYTLPPSRCELTKNQVSLSCAVKGFYPSDIAVEWESNGQPENNYKTTPPVLDSDGSFFLVSKLTVDKSRWQQGNVFSCSVMHEALHNHYTQKSLSLSP light: DIVMTQSPLSLPVTPGEPASISCQASESLVHSNRNTYLHWYLQKPGQSPQLLIYKVSNRFSGVPDRFSGSGSGTDFTLKISRVEAEDVGVYYCSQNTHVPPTFGQGTKVEIERTVAAPSVFIFPPSDEQLKSGTASVVCLLNNFYPREAKVQWKVDNALQSGNSQESVTEQDSKDSTYSLSSTLTLSKADYEKHKVYACEVTHQGLSSPVTKSFNRGEC | 8.6 | 13
GpH7-Kn045/GpH7-Hl055/GpL16-k0 (antibody, human IgG1, kappa, Heterodimerized anti-glypican-3 IgG1, knobs-into-holes; also called Kn045/Hl055) heavy 1: QVQLVQSGAEVKKPGASVTVSCKASGYTFTDYEMHWIRQPPGEGLEWIGAIDPKTGDTAYSESFQDRVTLTADKSTSTAYMELSSLTSEDTAVYYCTRFYSYTYWGQGTLVTVSSASTKGPSVFPLAPSSKSTSGGTAALGCLVKDYFPEPVTVSWNSGALTSGVHTFPAVLQSSGLYSLSSVVTVPSSSLGTQTYICNVNHKPSNTKVDKKVEPKSCDKTHTCPPCPAPEYYAGPSVFLFPPKPKDTLMISRTPEVTCVVVDVSDEDPEVKFNWYVDGVEVHNAKTKPREEQYNATYRVVSVLTVLHQDWLNGKEYKCKVSNKALPAPIEKTISKAKGQPREPQVCTLPPSRDELTKNQVSLWCLVKGFYPSDIAVEWESNGQPENNYKTTPPVLDSDGSFFLYSKLTVDKSRWQQGNVFSCSVMHEALHNHYTQKSLSLSP heavy 2: QVQLVQSGAEVKKPGASVTVSCKASGYTFTDYEMHWIRQPPGEGLEWIGAIDPKTGDTAYSESFQDRVTLTADKSTSTAYMELSSLTSEDTAVYYCTRFYSYTYWGQGTLVTVSSASTKGPSVFPLAPSSKSTSGGTAALGCLVKDYFPEPVTVSWNSGALTSGVHTFPAVLQSSGLYSLSSVVTVPSSSLGTQTYICNVNHKPSNTKVDKKVEPKSCDKTHTCPPCPAPELLAGPDVFLFPPKPKDTLMISRTPEVTCVVVDVSHEDPEVKFNWYVDGVEVHNAKTKPREELYNSTYRVVSVLTVLHQDWLNGKEYKCKVSNKALPMPEEKTISKAKGQPREPQVYTLPPSRCELTKNQVSLSCAVKGFYPSDIAVEWESNGQPENNYKTTPPVLDSDGSFFLVSKLTVDKSRWQQGNVFSCSVMHEALHNHYTQKSLSLSP light: DIVMTQSPLSLPVTPGEPASISCQASESLVHSNRNTYLHWYLQKPGQSPQLLIYKVSNRFSGVPDRFSGSGSGTDFTLKISRVEAEDVGVYYCSQNTHVPPTFGQGTKVEIERTVAAPSVFIFPPSDEQLKSGTASVVCLLNNFYPREAKVQWKVDNALQSGNSQESVTEQDSKDSTYSLSSTLTLSKADYEKHKVYACEVTHQGLSSPVTKSFNRGEC | 8.3 | 18
GpH7-Kn056/GpH7-Hl055/GpL16-k0 (antibody, human IgG1, kappa, Heterodimerized anti-glypican-3 IgG1, knobs-into-holes; also called Kn056/Hl055) heavy 1: QVQLVQSGAEVKKPGASVTVSCKASGYTFTDYEMHWIRQPPGEGLEWIGAIDPKTGDTAYSESFQDRVTLTADKSTSTAYMELSSLTSEDTAVYYCTRFYSYTYWGQGTLVTVSSASTKGPSVFPLAPSSKSTSGGTAALGCLVKDYFPEPVTVSWNSGALTSGVHTFPAVLQSSGLYSLSSVVTVPSSSLGTQTYICNVNHKPSNTKVDKKVEPKSCDKTHTCPPCPAPEYYAGPSVFLFPPKPKDTLMISRTPEVTCVVVDVSDEDPEVKFNWYVDGVEVHNAKTKPREELYNATYRVVSVLTVLHQDWLNGKEYKCKVSNKALPAPIEKTISKAKGQPREPQVCTLPPSRDELTKNQVSLWCLVKGFYPSDIAVEWESNGQPENNYKTTPPVLDSDGSFFLYSKLTVDKSRWQQGNVFSCSVMHEALHNHYTQKSLSLSP heavy 2: QVQLVQSGAEVKKPGASVTVSCKASGYTFTDYEMHWIRQPPGEGLEWIGAIDPKTGDTAYSESFQDRVTLTADKSTSTAYMELSSLTSEDTAVYYCTRFYSYTYWGQGTLVTVSSASTKGPSVFPLAPSSKSTSGGTAALGCLVKDYFPEPVTVSWNSGALTSGVHTFPAVLQSSGLYSLSSVVTVPSSSLGTQTYICNVNHKPSNTKVDKKVEPKSCDKTHTCPPCPAPELLAGPDVFLFPPKPKDTLMISRTPEVTCVVVDVSHEDPEVKFNWYVDGVEVHNAKTKPREELYNSTYRVVSVLTVLHQDWLNGKEYKCKVSNKALPMPEEKTISKAKGQPREPQVYTLPPSRCELTKNQVSLSCAVKGFYPSDIAVEWESNGQPENNYKTTPPVLDSDGSFFLVSKLTVDKSRWQQGNVFSCSVMHEALHNHYTQKSLSLSP light: DIVMTQSPLSLPVTPGEPASISCQASESLVHSNRNTYLHWYLQKPGQSPQLLIYKVSNRFSGVPDRFSGSGSGTDFTLKISRVEAEDVGVYYCSQNTHVPPTFGQGTKVEIERTVAAPSVFIFPPSDEQLKSGTASVVCLLNNFYPREAKVQWKVDNALQSGNSQESVTEQDSKDSTYSLSSTLTLSKADYEKHKVYACEVTHQGLSSPVTKSFNRGEC | 8.7 | 16
GpH7-Kn045/GpH7-Hl048/GpL16-k0 (antibody, human IgG1, kappa, Heterodimerized anti-glypican-3 IgG1, knobs-into-holes; also called Kn045/Hl048) heavy 1: QVQLVQSGAEVKKPGASVTVSCKASGYTFTDYEMHWIRQPPGEGLEWIGAIDPKTGDTAYSESFQDRVTLTADKSTSTAYMELSSLTSEDTAVYYCTRFYSYTYWGQGTLVTVSSASTKGPSVFPLAPSSKSTSGGTAALGCLVKDYFPEPVTVSWNSGALTSGVHTFPAVLQSSGLYSLSSVVTVPSSSLGTQTYICNVNHKPSNTKVDKKVEPKSCDKTHTCPPCPAPEYYAGPSVFLFPPKPKDTLMISRTPEVTCVVVDVSDEDPEVKFNWYVDGVEVHNAKTKPREEQYNATYRVVSVLTVLHQDWLNGKEYKCKVSNKALPAPIEKTISKAKGQPREPQVCTLPPSRDELTKNQVSLWCLVKGFYPSDIAVEWESNGQPENNYKTTPPVLDSDGSFFLYSKLTVDKSRWQQGNVFSCSVMHEALHNHYTQKSLSLSP heavy 2: QVQLVQSGAEVKKPGASVTVSCKASGYTFTDYEMHWIRQPPGEGLEWIGAIDPKTGDTAYSESFQDRVTLTADKSTSTAYMELSSLTSEDTAVYYCTRFYSYTYWGQGTLVTVSSASTKGPSVFPLAPSSKSTSGGTAALGCLVKDYFPEPVTVSWNSGALTSGVHTFPAVLQSSGLYSLSSVVTVPSSSLGTQTYICNVNHKPSNTKVDKKVEPKSCDKTHTCPPCPAPELLAGPDVFLFPPKPKDTLMISRTPEVTCVVVDVSHEDPEVKFNWYVDGVEVHNAKTKPREEQYNSTYRVVSVLTVLHQDWLNGKEYKCKVSNKALPKPEEKTISKAKGQPREPQVYTLPPSRCELTKNQVSLSCAVKGFYPSDIAVEWESNGQPENNYKTTPPVLDSDGSFFLVSKLTVDKSRWQQGNVFSCSVMHEALHNHYTQKSLSLSP light: DIVMTQSPLSLPVTPGEPASISCQASESLVHSNRNTYLHWYLQKPGQSPQLLIYKVSNRFSGVPDRFSGSGSGTDFTLKISRVEAEDVGVYYCSQNTHVPPTFGQGTKVEIERTVAAPSVFIFPPSDEQLKSGTASVVCLLNNFYPREAKVQWKVDNALQSGNSQESVTEQDSKDSTYSLSSTLTLSKADYEKHKVYACEVTHQGLSSPVTKSFNRGEC | 9.5 | 22
